{
  "source": "paper PMC9578707",
  "about": "“Identification of orphan ligand-receptor relationships using a cell-based CRISPRa enrichment screening platform” (eLife, 2022)",
  "key": {"[1]": {"target": "T1, PTPRU-ECD (receptor protein tyrosine phosphatase U, extracellular domain) (human, UniProt Q92729 19-749, biotin (BirA biotinylation; captured on streptavidin chip))", "T1 construct": "receptor-type protein tyrosine phosphatase U (PTPRU, R2B subfamily), human, extracellular domain; source: Expi293F, purified (Ni-NTA, SEC), biotinylated in vitro with BirA", "T1 sequence (looked up)": "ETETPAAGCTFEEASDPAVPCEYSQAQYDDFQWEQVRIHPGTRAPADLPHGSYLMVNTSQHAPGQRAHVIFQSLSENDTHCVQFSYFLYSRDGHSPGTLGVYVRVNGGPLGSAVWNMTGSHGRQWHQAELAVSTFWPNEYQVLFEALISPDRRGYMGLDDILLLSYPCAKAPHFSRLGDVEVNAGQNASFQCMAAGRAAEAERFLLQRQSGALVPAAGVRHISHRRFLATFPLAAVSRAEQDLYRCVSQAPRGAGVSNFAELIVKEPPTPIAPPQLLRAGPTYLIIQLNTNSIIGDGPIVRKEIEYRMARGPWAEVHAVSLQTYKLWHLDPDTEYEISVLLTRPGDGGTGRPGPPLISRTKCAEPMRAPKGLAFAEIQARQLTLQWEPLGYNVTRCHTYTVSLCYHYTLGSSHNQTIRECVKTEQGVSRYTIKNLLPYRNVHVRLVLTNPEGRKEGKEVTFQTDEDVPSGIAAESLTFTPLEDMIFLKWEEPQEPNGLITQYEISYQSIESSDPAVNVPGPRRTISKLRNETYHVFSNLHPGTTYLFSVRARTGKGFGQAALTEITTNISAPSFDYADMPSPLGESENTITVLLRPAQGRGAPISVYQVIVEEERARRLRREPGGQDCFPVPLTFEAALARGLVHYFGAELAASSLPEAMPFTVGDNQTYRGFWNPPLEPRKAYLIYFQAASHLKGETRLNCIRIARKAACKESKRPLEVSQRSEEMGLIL", "assay": "SPR; Biacore T100; biotinylated ligand captured on a streptavidin (SA) Series S chip (~100-200 RU); non-biotinylated analyte in twofold dilutions in HBS-P+; 60 s injection at 30 ul/min, 240 s dissociation; regeneration 2 x 10 sec 2M MgCl2; kinetic fit with a 1:1 binding (Langmuir) model", "settings": "both partners purified"}, "human PTPRU-ECD [2]": {"target": "T2, human PTPRU-ECD (human, UniProt Q92729 19-749, biotin where captured on the streptavidin chip)", "T2 chain": "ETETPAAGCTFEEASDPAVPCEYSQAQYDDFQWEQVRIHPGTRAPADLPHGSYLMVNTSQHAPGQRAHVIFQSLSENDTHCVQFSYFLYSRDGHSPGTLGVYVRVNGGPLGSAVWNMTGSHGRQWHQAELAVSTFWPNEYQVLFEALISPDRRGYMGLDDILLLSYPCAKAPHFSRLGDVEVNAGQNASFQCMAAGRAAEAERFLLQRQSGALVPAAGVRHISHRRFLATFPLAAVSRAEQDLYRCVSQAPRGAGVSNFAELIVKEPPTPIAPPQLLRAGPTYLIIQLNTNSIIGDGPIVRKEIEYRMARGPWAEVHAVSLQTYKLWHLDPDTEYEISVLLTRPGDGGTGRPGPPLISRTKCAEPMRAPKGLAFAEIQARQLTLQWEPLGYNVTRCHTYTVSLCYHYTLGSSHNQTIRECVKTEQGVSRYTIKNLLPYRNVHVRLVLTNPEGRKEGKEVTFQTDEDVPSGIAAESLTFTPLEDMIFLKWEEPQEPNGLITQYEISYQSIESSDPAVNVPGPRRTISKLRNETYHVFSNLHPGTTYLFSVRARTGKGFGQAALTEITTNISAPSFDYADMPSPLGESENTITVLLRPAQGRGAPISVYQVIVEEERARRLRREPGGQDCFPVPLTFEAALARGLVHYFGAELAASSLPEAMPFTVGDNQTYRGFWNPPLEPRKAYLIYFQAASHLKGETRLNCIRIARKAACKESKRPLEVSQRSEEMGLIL", "assay": "SPR"}, "PTPRD ECD": {"target": "T3, PTPRD ECD (human, UniProt P23468 21-1265, biotin where captured on the streptavidin chip)", "T3 construct": "PTPRD, human, extracellular domain; construct of the ECD is not described; source: Expi293F, purified (Ni-NTA, SEC)", "T3 sequence (P23468 21-1265)": "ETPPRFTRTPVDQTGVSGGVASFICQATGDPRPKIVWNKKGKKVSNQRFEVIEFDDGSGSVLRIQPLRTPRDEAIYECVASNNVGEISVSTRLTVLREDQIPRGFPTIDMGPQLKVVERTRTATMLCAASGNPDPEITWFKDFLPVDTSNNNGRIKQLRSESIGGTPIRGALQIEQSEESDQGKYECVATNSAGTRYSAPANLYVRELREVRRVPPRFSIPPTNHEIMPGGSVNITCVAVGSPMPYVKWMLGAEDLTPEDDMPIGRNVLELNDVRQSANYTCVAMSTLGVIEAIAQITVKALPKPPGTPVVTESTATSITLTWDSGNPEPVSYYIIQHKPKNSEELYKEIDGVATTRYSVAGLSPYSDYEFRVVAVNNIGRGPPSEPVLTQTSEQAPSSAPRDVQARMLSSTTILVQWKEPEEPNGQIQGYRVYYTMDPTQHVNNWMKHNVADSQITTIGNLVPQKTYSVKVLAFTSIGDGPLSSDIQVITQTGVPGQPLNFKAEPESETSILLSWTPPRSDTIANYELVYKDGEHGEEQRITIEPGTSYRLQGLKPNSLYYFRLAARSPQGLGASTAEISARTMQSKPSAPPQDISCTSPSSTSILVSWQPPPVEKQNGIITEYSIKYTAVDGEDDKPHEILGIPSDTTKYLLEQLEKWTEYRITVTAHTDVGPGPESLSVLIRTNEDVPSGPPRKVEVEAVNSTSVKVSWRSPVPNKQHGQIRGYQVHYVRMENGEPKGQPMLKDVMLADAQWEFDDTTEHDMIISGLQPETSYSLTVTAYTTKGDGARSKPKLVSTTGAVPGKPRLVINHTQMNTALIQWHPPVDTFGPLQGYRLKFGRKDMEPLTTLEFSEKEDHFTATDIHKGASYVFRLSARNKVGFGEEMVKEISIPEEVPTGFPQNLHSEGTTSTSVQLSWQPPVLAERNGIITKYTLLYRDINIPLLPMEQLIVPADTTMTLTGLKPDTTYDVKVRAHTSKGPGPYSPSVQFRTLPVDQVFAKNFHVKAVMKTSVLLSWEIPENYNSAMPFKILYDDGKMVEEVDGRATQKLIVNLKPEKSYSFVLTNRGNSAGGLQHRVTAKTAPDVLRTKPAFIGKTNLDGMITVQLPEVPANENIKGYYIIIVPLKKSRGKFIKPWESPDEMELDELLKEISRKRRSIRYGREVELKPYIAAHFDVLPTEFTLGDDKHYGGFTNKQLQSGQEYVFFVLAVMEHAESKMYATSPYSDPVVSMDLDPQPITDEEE", "assay": "SPR; Biacore T100; biotinylated secreted ligand (OMG, PTN or MDK) captured on a streptavidin chip, receptor ECD as analyte; HBS-P+ buffer", "settings": "both partners purified"}, "PTPRF ECD": {"target": "T4, PTPRF ECD (human, UniProt P10586 30-1263, biotin where captured on the streptavidin chip)", "T4 construct": "PTPRF, human, extracellular domain; construct of the ECD is not described; also called PRPRF; source: Expi293F, purified (Ni-NTA, SEC)", "assay": "SPR; Biacore T100; biotinylated secreted ligand (OMG, PTN or MDK) captured on a streptavidin chip, receptor ECD as analyte; HBS-P+ buffer", "settings": "both partners purified"}, "PTPRS ECD": {"target": "T5, PTPRS ECD (human, UniProt Q13332 30-1282, biotin where captured on the streptavidin chip)", "T5 construct": "PTPRS, human, extracellular domain; construct of the ECD is not described; source: Expi293F, purified (Ni-NTA, SEC)", "T5 sequence (looked up)": "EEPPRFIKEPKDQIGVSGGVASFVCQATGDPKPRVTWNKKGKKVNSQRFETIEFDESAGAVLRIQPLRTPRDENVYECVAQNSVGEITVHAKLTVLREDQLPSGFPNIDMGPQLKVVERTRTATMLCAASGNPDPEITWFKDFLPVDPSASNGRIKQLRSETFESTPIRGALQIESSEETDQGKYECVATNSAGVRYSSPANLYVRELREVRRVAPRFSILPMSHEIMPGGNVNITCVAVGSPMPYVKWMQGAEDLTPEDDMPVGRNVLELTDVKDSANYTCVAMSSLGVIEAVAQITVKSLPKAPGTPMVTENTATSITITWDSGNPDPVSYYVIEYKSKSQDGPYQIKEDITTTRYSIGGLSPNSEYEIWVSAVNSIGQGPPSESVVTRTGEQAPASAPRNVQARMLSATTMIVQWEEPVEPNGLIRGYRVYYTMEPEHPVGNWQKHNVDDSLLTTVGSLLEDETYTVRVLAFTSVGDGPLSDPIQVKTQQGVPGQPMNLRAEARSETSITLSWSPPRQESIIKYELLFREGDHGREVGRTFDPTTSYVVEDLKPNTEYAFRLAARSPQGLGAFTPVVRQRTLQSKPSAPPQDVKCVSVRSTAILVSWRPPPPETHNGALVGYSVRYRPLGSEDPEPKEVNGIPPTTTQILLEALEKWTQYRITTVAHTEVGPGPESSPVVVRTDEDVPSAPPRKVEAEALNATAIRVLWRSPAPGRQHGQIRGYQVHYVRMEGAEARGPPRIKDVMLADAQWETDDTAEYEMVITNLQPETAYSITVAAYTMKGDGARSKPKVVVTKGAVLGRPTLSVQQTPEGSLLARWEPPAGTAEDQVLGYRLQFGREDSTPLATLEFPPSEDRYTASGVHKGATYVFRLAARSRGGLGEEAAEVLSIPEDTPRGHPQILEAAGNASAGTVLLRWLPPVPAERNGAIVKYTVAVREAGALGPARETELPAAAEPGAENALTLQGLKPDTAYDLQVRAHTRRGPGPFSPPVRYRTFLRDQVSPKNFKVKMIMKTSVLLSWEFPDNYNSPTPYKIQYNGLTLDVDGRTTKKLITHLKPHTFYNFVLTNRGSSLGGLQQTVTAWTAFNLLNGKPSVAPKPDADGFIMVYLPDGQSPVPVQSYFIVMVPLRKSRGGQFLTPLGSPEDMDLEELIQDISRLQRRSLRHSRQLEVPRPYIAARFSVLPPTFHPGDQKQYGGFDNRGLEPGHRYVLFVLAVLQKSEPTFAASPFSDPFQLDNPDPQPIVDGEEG", "assay": "SPR; Biacore T100; biotinylated secreted ligand (OMG, PTN or MDK) captured on a streptavidin chip, receptor ECD as analyte; HBS-P+ buffer", "settings": "both partners purified"}, "human PTPRU-ECD [3]": {"target": "T6, human PTPRU-ECD (human, UniProt Q92729 19-749, biotin where captured on the streptavidin chip)", "T6 construct": "PTPRU, human, extracellular domain; construct of the ECD is not described; source: Expi293F, purified (Ni-NTA, SEC)", "T6 sequence (looked up)": "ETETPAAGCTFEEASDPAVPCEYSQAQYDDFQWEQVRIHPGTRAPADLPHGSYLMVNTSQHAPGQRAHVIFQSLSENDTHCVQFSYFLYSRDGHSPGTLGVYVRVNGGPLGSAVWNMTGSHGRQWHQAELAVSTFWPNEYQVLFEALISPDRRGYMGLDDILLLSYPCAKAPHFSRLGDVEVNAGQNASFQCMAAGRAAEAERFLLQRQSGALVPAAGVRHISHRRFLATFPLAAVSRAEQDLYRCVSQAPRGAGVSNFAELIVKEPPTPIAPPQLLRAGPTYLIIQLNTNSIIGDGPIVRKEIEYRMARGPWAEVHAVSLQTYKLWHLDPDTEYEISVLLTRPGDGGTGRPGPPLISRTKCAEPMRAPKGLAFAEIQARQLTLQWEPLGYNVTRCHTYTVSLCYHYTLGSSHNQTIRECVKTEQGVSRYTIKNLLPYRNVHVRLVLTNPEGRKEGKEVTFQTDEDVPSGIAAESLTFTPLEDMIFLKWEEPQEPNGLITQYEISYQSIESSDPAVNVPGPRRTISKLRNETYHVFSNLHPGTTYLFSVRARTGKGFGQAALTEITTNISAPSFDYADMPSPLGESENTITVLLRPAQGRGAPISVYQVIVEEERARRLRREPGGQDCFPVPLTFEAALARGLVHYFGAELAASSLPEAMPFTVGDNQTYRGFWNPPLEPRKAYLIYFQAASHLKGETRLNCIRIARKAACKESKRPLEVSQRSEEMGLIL", "assay": "SPR; Biacore T100; biotinylated receptor ECD or hit protein captured on a streptavidin chip (~100-200 RU), non-biotinylated secreted ligand as analyte in twofold dilutions; HBS-P+ buffer; 1:1 Langmuir model or equilibrium fit", "settings": "both partners purified"}, "[4]": {"target": "T1, PTPRU-ECD (receptor protein tyrosine …)", "assay": "SPR; Biacore T100; biotinylated ligand captured on a streptavidin (SA) Series S chip (~100-200 RU); non-biotinylated analyte in twofold dilutions in HBS-P+; 60 s injection at 30 ul/min, 240 s dissociation; regeneration 2 x 10 sec 2M MgCl2; kinetic fit with a 1:1 binding (Langmuir) model", "settings": "both partners purified", "remark": "listed apart in the source"}},
  "data": [
    {"binder": "Osteocrin (OSTN) (ligand, human, UniProt P61366 28-133, looked up, Osteocrin (OSTN, Musclin), human; also called Musclin; source: Expi293F, purified (Ni-NTA, SEC), not biotinylated (SPR analyte)) VDVTTTEAFDSGVIDVQSTPTVREEKSATDLTAKLLLLDELVSLENDVIETKKKRSFSGFGSPLDRLSAGSVDHKGKQRKVVDHPKRRFGIPMDRIGRNRLSNSRG", "values": [
      {"measurement": "Kd", "setting": "[1]", "value": 12.7, "unit": "nM"},
      {"measurement": "koff", "setting": "[1]", "value": 0.00368, "unit": "s⁻¹"},
      {"measurement": "kon", "setting": "[1]", "value": 290000, "unit": "M⁻¹ s⁻¹"}
    ]},
    {"binder": "oligodendrocyte-myelin glycoprotein (ligand, human, UniProt P23515 25-417, looked up, biotin (biotinylated in vitro with BirA) where used on beads or captured on the chip, oligodendrocyte-myelin glycoprotein, human; also called OMG; source: Expi293F, purified (Ni-NTA, SEC); not shown: AviTag, C-terminal, kept) ICPLQCICTERHRHVDCSGRNLSTLPSGLQENIIHLNLSYNHFTDLHNQLTQYTNLRTLDISNNRLESLPAHLPRSLWNMSAANNNIKLLDKSDTAYQWNLKYLDVSKNMLEKVVLIKNTLRSLEVLNLSSNKLWTVPTNMPSKLHIVDLSNNSLTQILPGTLINLTNLTHLYLHNNKFTFIPDQSFDQLFQLQEITLYNNRWSCDHKQNITYLLKWMMETKAHVIGTPCSTQISSLKEHNMYPTPSGFTSSLFTVSGMQTVDTINSLSVVTQPKVTKIPKQYRTKETTFGATLSKDTTFTSTDKAFVPYPEDTSTETINSHEAAAATLTIHLQDGMVTNTSLTSSTKSSPTPMTLSITSGMPNNFSEMPQQSTTLNLWREETTTNVKTPLPS", "values": [
      {"measurement": "koff", "setting": "human PTPRU-ECD [2]", "value": 0.00042, "unit": "s⁻¹"},
      {"measurement": "binding result", "setting": "PTPRD ECD", "value": "binds"},
      {"measurement": "binding result", "setting": "PTPRF ECD", "value": "binds"},
      {"measurement": "binding result", "setting": "PTPRS ECD", "value": "binds"},
      {"measurement": "Kd", "setting": "human PTPRU-ECD [3]", "value": "~70", "unit": "nM"}
    ]},
    {"binder": "oligodendrocyte-myelin glycoprotein (OMG) (ligand, human, UniProt P23515 25-417, looked up, oligodendrocyte-myelin glycoprotein (OMG), human; source: Expi293F, purified (Ni-NTA, SEC), not biotinylated (SPR analyte)) ICPLQCICTERHRHVDCSGRNLSTLPSGLQENIIHLNLSYNHFTDLHNQLTQYTNLRTLDISNNRLESLPAHLPRSLWNMSAANNNIKLLDKSDTAYQWNLKYLDVSKNMLEKVVLIKNTLRSLEVLNLSSNKLWTVPTNMPSKLHIVDLSNNSLTQILPGTLINLTNLTHLYLHNNKFTFIPDQSFDQLFQLQEITLYNNRWSCDHKQNITYLLKWMMETKAHVIGTPCSTQISSLKEHNMYPTPSGFTSSLFTVSGMQTVDTINSLSVVTQPKVTKIPKQYRTKETTFGATLSKDTTFTSTDKAFVPYPEDTSTETINSHEAAAATLTIHLQDGMVTNTSLTSSTKSSPTPMTLSITSGMPNNFSEMPQQSTTLNLWREETTTNVKTPLPS", "values": [
      {"measurement": "Kd", "setting": "[4]", "value": 70.6, "unit": "nM"},
      {"measurement": "koff", "setting": "[4]", "value": 0.000472, "unit": "s⁻¹"},
      {"measurement": "kon", "setting": "[4]", "value": 6690, "unit": "M⁻¹ s⁻¹"}
    ]}
  ]
}
